Target: T1, albumin (in whole human plasma) (human, UniProt P02768 25-609)
T1 construct: Endogenous plasma protein, not a purified reagent
Assay: ethanol precipitation of human plasma spiked with TRX; fractions followed by western blot

T1 sequence (P02768 25-609 limits assumed): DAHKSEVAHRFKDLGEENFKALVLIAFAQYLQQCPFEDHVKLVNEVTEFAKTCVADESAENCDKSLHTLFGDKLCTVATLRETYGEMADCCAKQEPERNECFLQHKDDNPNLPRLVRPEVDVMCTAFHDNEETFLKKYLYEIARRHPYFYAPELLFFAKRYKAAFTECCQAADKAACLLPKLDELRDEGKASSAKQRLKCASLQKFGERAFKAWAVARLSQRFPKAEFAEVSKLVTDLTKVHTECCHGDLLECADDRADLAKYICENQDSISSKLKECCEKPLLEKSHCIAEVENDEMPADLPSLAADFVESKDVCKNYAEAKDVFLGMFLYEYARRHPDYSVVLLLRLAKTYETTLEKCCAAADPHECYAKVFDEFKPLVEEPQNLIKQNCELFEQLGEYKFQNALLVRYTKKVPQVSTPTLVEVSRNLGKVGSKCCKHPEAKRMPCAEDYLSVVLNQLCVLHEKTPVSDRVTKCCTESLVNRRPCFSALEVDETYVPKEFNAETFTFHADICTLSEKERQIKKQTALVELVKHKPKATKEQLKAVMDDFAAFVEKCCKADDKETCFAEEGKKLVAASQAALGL

B1: recombinant human thioredoxin (TRX), full length (enzyme)
chain: VKQIESKTAFQEALDAAGDKLVVVDFSATWCGPCKMIKPFFHSLSEKYSNVIFLEVDVDDCQDVASECEVKCMPTFQFFKKGQKVGEFSGANKEKLEATINELV
notes: It was denatured on SDS gels for the western blots; also called full-length thioredoxin
- binding result: binds

Source: patent publication US20110143379A1 (Johns Hopkins, published 2011)
